Source: patent CN116745314A

Target: spike glycoprotein of live SARS-CoV-2 (isolate USA-WA1/2020) (SARS-CoV-2) (UniProt P0DTC2)
Assay: cell-based or functional assay

In the case of S2D106-LS (antibody), the EC50 (live SARS-CoV-2-luc neutralisation, MOI 0.1, 6 h) is reported as 6 ng/mL, the EC90 (live SARS-CoV-2-luc neutralisation, MOI 0.1, 6 h) is reported as 22 ng/mL and the IC50 (live SARS-CoV-2-luc neutralisation, MOI 0.1, 6 h) is reported as 4.49 ng/mL.
